Source: publication PMC12033910

Target: holo-PhuS H209A (Pseudomonas aeruginosa PAO1, UniProt O68880 1-354, H209A)
Assay: EMSA

B1: prrF1-50 (5'-biotin) (dsDNA)
DNA 1: AGCAGAAAAGTTTGGCGAAAGCGTTTGACATGGAAATGAGAATCATTATT
DNA 2: AATAATGATTCTCATTTCCATGTCAAACGCTTTCGCCAAACTTTTCTGCT
B1: binds.
